Where no end group is shown, it is not given here.
B1: Phage-1181 (peptide)
peptide: YCEGHSSLYLEKCL
modifications: cysteine pairing not given here; also: displayed on phage by fusion to pIII, linker and pIII sequence not given here
notes: Clonal phage of the Peptide-87 library; not shown: fused to the pIII filament of the bacteriophage
B2: Phage-1180 (peptide)
peptide: YCDGHIWPWIEKCL
modifications: cysteine pairing not given here; also: displayed on phage by fusion to pIII, linker and pIII sequence not given here
notes: as for B1
B3: Phage-1179 (peptide)
peptide: YCAGHLPQYMHKCL
modifications: cysteine pairing not given here; also: displayed on phage by fusion to pIII, linker and pIII sequence not given here
notes: as for B1
B4: Phage-1178 (peptide)
peptide: YCDGHVVEYMSKCL
modifications: cysteine pairing not given here; also: displayed on phage by fusion to pIII, linker and pIII sequence not given here
notes: as for B1
B5: Phage-1186 (peptide)
peptide: YCAGHAEEYMLKCL
B6: Phage-1182 (peptide)
peptide: YCDGHAMEYMEKCL
B7: Phage-1185 (peptide)
peptide: YCDGHTKEYMWKCL
B8: Phage-1191 (peptide)
peptide: YCDGHANAYIWKCL
B9: Phage-1194 (peptide)
peptide: YCDGHAKVYIWKCL
B10: Phage-1193 (peptide)
peptide: YCEGHAQEYMAKCL
B11: Phage-1190 (peptide)
peptide: YCEGHSEMYMSKCL
B12: Phage-1183 (peptide)
peptide: YCEGHLWEYLAKCL
B13: Phage-1188 (peptide)
peptide: YCVGHLPEYMLECM
B14: Phage-1192 (peptide)
peptide: YCEGHIPMYMLKCM
B15: Phage-1184 (peptide)
peptide: YCEGHMGEYMLKCL
B16: Phage-1187 (peptide)
peptide: YCEGHSAEYIGKCL
B17: Phage-1189 (peptide)
peptide: YCDGHSFHYMAKCL
B18: Phage-1199 (peptide)
peptide: YCEGHSSEYLGKCL
modifications: cysteine pairing not given here; also: displayed on phage by fusion to pIII, linker and pIII sequence not given here
B19: Phage-1195 (peptide)
peptide: YCEGHIPAYMAKCL
modifications: cysteine pairing not given here; also: displayed on phage by fusion to pIII, linker and pIII sequence not given here
B20: Phage-1196 (peptide)
peptide: YCDGHAPIYMQKCL
modifications: cysteine pairing not given here; also: displayed on phage by fusion to pIII, linker and pIII sequence not given here
B21: Phage-1207 (peptide)
peptide: YCEGHSSAYMRKCL
modifications: cysteine pairing not given here; also: displayed on phage by fusion to pIII, linker and pIII sequence not given here
B22: Phage-1203 (peptide)
peptide: YCDGHAPEFIRKCL
modifications: cysteine pairing not given here; also: displayed on phage by fusion to pIII, linker and pIII sequence not given here
B23: Phage-1198 (peptide)
peptide: YCEGHDVQYMQKCL
modifications: cysteine pairing not given here; also: displayed on phage by fusion to pIII, linker and pIII sequence not given here
B24: Phage-1200 (peptide)
peptide: YCDGHLPRYMEKCM
modifications: cysteine pairing not given here; also: displayed on phage by fusion to pIII, linker and pIII sequence not given here
B25: Phage-1206 (peptide)
peptide: YCEGHSVEYILKCL
modifications: cysteine pairing not given here; also: displayed on phage by fusion to pIII, linker and pIII sequence not given here
B26: Phage-1202 (peptide)
peptide: YCEGHLPSYLAKCL
modifications: cysteine pairing not given here; also: displayed on phage by fusion to pIII, linker and pIII sequence not given here
B27: Phage-1205 (peptide)
peptide: YCDGHDARYMTKCL
modifications: cysteine pairing not given here; also: displayed on phage by fusion to pIII, linker and pIII sequence not given here
B28: Phage-1204 (peptide)
peptide: YCEGHAPQYMSKCL
modifications: cysteine pairing not given here; also: displayed on phage by fusion to pIII, linker and pIII sequence not given here
B29: Phage-1201 (peptide)
peptide: YCDGHSSAYIDKCL
modifications: cysteine pairing not given here; also: displayed on phage by fusion to pIII, linker and pIII sequence not given here
B30: Phage-1197 (peptide)
peptide: YCEGHLWEYMKKCL
modifications: cysteine pairing not given here; also: displayed on phage by fusion to pIII, linker and pIII sequence not given here

target: Anti-CD28 Fab (SEQ ID NOs: 696, 697); assay: phage binding ELISA; biotinylated anti-CD28 Fab on neutravidin plate, clonal phage supernatant, anti-M13 HRP;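 further: crude clonal phage supernatants screened after wells were preincubated either with CD28 antigen in blocking buffer or with blocking buffer only, phage added without washing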
Target sequence in this assay (VH, as listed by the source, chain 1 of 2): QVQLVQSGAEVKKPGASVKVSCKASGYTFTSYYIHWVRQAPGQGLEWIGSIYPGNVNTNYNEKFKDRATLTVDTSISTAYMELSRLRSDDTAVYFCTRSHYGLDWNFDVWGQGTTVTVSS
Target sequence in this assay (VL, as listed by the source, chain 2 of 2): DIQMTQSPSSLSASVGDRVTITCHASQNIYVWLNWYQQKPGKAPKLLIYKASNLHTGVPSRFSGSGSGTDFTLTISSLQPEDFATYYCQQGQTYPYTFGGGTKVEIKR
Protocol: (§1) After panning, phage infected bacteria were plated out and colonies picked into 96 well blocks. Clonal phage was then amplified and separated from bacterial cells via centrifugation.
(§2) Clonal phage were harvested as crude supematants and screened via standard ELISAs. […] Prior to the addition of clonal phage, wells were incubated with blocking buffer and CD28 antigen or blocking buffer alone. Without washing or aspirating, clonal phage supematants were then added to the wells and incubated for a short time. Wells were then washed followed by detection of bound phage using a horse radish conjugated anti-M13 antibody. Clonal phage of interest were then sent for sequence analysis.

Point of comparison: B1, “Anti-CD28 Fab (SEQ ID NOs: 696, 697) signal” value 1.11. Against it:
- B2 — the same, 1.11
- B3 — the same, 1.11
- B4 — higher, 1.12

target: T1, Anti-CD28 Fab (SEQ ID NOs: 696, 697); assay: clonal phage ELISA on captured anti-CD28 Fab; wells pre-incubated with CD28 antigen as competitor
T1 construct: Biotinylated and captured on neutravidin coated plates in the phage ELISA
T1 sequence (VH, as listed by the source, chain 1 of 2): as the sequence (VH, as listed by the source, chain 1 of 2) above
T1 sequence (VL, as listed by the source, chain 2 of 2): as the sequence (VL, as listed by the source, chain 2 of 2) above
Protocol: as §1, §2

Point of comparison: B9, “Phage binding ELISA, Anti-CD28 Fab signal in the presence of CD28” value 0.08. Against it:
- B5 — lower, 0.07
- B6 — the same, 0.08
- B7 — lower, 0.06
- B8 — higher, 0.09
- B10 — the same, 0.08
- B11 — higher, 0.09
- B12 — lower, 0.05
- B13 — lower, 0.07
- B14 — higher, 0.09
- B15 — lower, 0.06
- B16 — lower, 0.07
- B17 — lower, 0.06

target: T2, Anti-CD28 Fab (SEQ ID NOs: 696, 697); assay: phage ELISA; biotinylated anti-CD28 Fab on neutravidin plate, clonal phage supernatant, anti-M13 HRP
T2 construct: In the phage ELISA the Fab was biotinylated and captured on neutravidin coated plates
T2 sequence (VH, as listed by the source, chain 1 of 2): as the sequence (VH, as listed by the source, chain 1 of 2) above
T2 sequence (VL, as listed by the source, chain 2 of 2): as the sequence (VL, as listed by the source, chain 2 of 2) above
Protocol: as §1, §2

Point of comparison: B30, “Anti-CD28 Fab signal (phage binding ELISA)” value 1.06. Against it:
- B18 — lower, 1.05
- B19 — the same, 1.06
- B20 — the same, 1.06
- B21 — lower, 1.04
- B22 — lower, 1.05
- B23 — the same, 1.06
- B24 — lower, 1.05
- B25 — lower, 1.04
- B26 — lower, 1.05
- B27 — lower, 1.04
- B28 — lower, 1.04
- B29 — lower, 1.05

target: T1, Anti-CD28 Fab (SEQ ID NOs: 696, 697); assay: clonal phage ELISA; biotinylated anti-CD28 Fab on neutravidin plate, bound phage detected with anti-M13 HRP
Protocol: as §1, §2

Point of comparison: B8, “Phage binding ELISA, Anti-CD28 Fab signal” value 1.07. Against it:
- B5 — higher, 1.09
- B6 — higher, 1.11
- B7 — higher, 1.1
- B9 — lower, 1.06
- B10 — lower, 1.06
- B11 — the same, 1.07
- B12 — higher, 1.1
- B13 — higher, 1.08
- B14 — lower, 1.06
- B15 — higher, 1.1
- B16 — higher, 1.08
- B17 — higher, 1.08

target: T2, Anti-CD28 Fab (SEQ ID NOs: 696, 697); assay: phage ELISA; captured anti-CD28 Fab pre-incubated with CD28 antigen as competitor, anti-M13 HRP;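 further: crude clonal phage supernatants added without washing after CD28 pre-incubation, bound phage detected with HRP anti-M13 antibody, reference wells got blocking buffer lacking CD28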
Protocol: as §1, §2

Point of comparison: B19, “Anti-CD28 Fab signal in the presence of CD28 (phage binding ELISA)” value 0.08. Against it:
- B18 — higher, 0.09
- B20 — lower, 0.06
- B21 — lower, 0.06
- B22 — lower, 0.07
- B23 — the same, 0.08
- B24 — lower, 0.06
- B25 — lower, 0.06
- B26 — lower, 0.06
- B27 — higher, 0.09
- B28 — the same, 0.08
- B29 — lower, 0.06
- B30 — lower, 0.07

target: Anti-CD28 Fab (SEQ ID NOs: 696, 697); assay: phage binding ELISA on captured anti-CD28 Fab; competitor CD28 antigen pre-incubated in the wells
Target sequence in this assay (VH, as listed by the source, chain 1 of 2): as the sequence (VH, as listed by the source, chain 1 of 2) above
Target sequence in this assay (VL, as listed by the source, chain 2 of 2): as the sequence (VL, as listed by the source, chain 2 of 2) above
Protocol: as §1, §2

Point of comparison: B4, “Anti-CD28 Fab signal in the presence of CD28” value 0.08. Against it:
- B1 — the same, 0.08
- B2 — higher, 0.11
- B3 — the same, 0.08
